Data reported in patent US20240209076A1 (KODIAK SCIENCES, published 2024).

Legend:
human IL-6 [1] = molecular target: T1, human IL-6 (human, UniProt P05231 30-212); experiment: SPR Biacore, purified, Protein A capture, 37 C
Experimental: Antibodies were captured on a Protein A chip (GE) by injecting 1:20 cell supernatant dilutions at 10 μL/min for 60 seconds. […] The sensor chip was regenerated by a 60 seconds injection of 10 mM Glycine pH 1.7 at the flow rate of 50 μL/min. […] For this setup, 1 μg/mL of purified antibody was injected over a Protein A chip at 10 μL/min for 25 seconds. […] The sensor chip was regenerated by a 60 seconds injection of 10 mM Glycine pH 1.7 at flow rate of 50 μL/min. Data analysis for supernatant and purified samples were performed using BIAevaluation software (GE). All sensorgrams were double reference subtracted and fit using a 1:1 Langmuir binding model.

human IL-6 [2] = molecular target: T1, human IL-6; experiment: SPR Biacore, supernatant, Protein A capture, 37 C
In short: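 Antibodies from 1:20-diluted culture supernatant in HBS-EP+ were captured on a Protein A chip at 37 C, with 10 mM glycine pH 1.7 regeneration. Sensorgrams were double-reference subtracted and fitted to a 1:1 Langmuir model.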

T1 sequence (P05231 30-212 limits assumed): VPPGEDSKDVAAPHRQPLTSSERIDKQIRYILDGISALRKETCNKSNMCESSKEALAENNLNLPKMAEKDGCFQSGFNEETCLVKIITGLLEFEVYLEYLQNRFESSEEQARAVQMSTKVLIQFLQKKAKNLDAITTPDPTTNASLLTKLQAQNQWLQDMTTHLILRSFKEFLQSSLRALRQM

| Kd (human IL-6 [1]) | koff (human IL-6 [1]) | kon (human IL-6 [1]) | Kd (human IL-6 [2]) | koff (human IL-6 [2]) | kon (human IL-6 [2]) | Binder |
| --- | --- | --- | --- | --- | --- | --- |
| 0.149 nM | 0.000336 s⁻¹ | 2.26e+06 M⁻¹ s⁻¹ | 0.148 nM | 0.000734 s⁻¹ | 4.97e+06 M⁻¹ s⁻¹ | Anti-IL-6 antibody, heavy chain S35H, G66D, L100Q / light chain M32L, M50D, N52S, M88Q (antibody, IgG1, V domains shown, IgG1; variable domains only; VL is variant III) VH: EVQLVESGGGLVQPGGSLRLSCAASGFTFSPFAMHWVRQAPGKGLEWVAKISPGGSWTYYSDTVTDRFTFSLDTSKSTAYLQMNSLRAEDTAVYYCARQQWGYYALDIWGQGTLVTVSS VL: DIQLTQSPSSLSASVGDRVTITCSASISVSYLYWYQQKPGKAPKLLIYDDSSLASGVPSRFSGSGSGTDFTLTISSLQPEDFATYYCQQWSGYPYTFGQGTKVEIK |
| 0.188 nM | 0.000279 s⁻¹ | 1.49e+06 M⁻¹ s⁻¹ | 0.191 nM | 0.000822 s⁻¹ | 4.29e+06 M⁻¹ s⁻¹ | Anti-IL-6 antibody, heavy chain S35H, G66D, L100K / light chain M32L, M50D, N52S, M88Q (antibody, IgG1, V domains shown, IgG1; variable domains only; VL is variant III) VH: EVQLVESGGGLVQPGGSLRLSCAASGFTFSPFAMHWVRQAPGKGLEWVAKISPGGSWTYYSDTVTDRFTFSLDTSKSTAYLQMNSLRAEDTAVYYCARQKWGYYALDIWGQGTLVTVSS VL: DIQLTQSPSSLSASVGDRVTITCSASISVSYLYWYQQKPGKAPKLLIYDDSSLASGVPSRFSGSGSGTDFTLTISSLQPEDFATYYCQQWSGYPYTFGQGTKVEIK |

More lines, now with the values behind:

| Binder | Kd (human IL-6 [1]) | koff (human IL-6 [1]) | kon (human IL-6 [1]) | Kd (human IL-6 [2]) | koff (human IL-6 [2]) | kon (human IL-6 [2]) |
| --- | --- | --- | --- | --- | --- | --- |
| Anti-IL-6 antibody, heavy chain S35H, G66D / light chain M32L, M50D, N52S, M88Q (antibody, IgG1, V domains shown, IgG1; variable domains only; VL is variant III) VH: EVQLVESGGGLVQPGGSLRLSCAASGFTFSPFAMHWVRQAPGKGLEWVAKISPGGSWTYYSDTVTDRFTFSLDTSKSTAYLQMNSLRAEDTAVYYCARQLWGYYALDIWGQGTLVTVSS VL: DIQLTQSPSSLSASVGDRVTITCSASISVSYLYWYQQKPGKAPKLLIYDDSSLASGVPSRFSGSGSGTDFTLTISSLQPEDFATYYCQQWSGYPYTFGQGTKVEIK | 0.195 nM | 0.000238 s⁻¹ | 1.22e+06 M⁻¹ s⁻¹ | 0.403 nM | 0.000607 s⁻¹ | 1.5e+06 M⁻¹ s⁻¹ |
| Anti-IL-6 antibody, heavy chain S35H, G66D, L100G / light chain M32L, M50D, N52S, M88Q (antibody, IgG1, V domains shown, IgG1; variable domains only; VL is variant III) VH: EVQLVESGGGLVQPGGSLRLSCAASGFTFSPFAMHWVRQAPGKGLEWVAKISPGGSWTYYSDTVTDRFTFSLDTSKSTAYLQMNSLRAEDTAVYYCARQGWGYYALDIWGQGTLVTVSS VL: DIQLTQSPSSLSASVGDRVTITCSASISVSYLYWYQQKPGKAPKLLIYDDSSLASGVPSRFSGSGSGTDFTLTISSLQPEDFATYYCQQWSGYPYTFGQGTKVEIK | 0.251 nM | 0.000694 s⁻¹ | 2.76e+06 M⁻¹ s⁻¹ | 0.233 nM | 0.0016 s⁻¹ | 6.87e+06 M⁻¹ s⁻¹ |
| Anti-IL-6 antibody, heavy chain S35H, G66D, L100A / light chain M32L, M50D, N52S, M88Q (antibody, IgG1, V domains shown, IgG1; variable domains only; VL is variant III) VH: EVQLVESGGGLVQPGGSLRLSCAASGFTFSPFAMHWVRQAPGKGLEWVAKISPGGSWTYYSDTVTDRFTFSLDTSKSTAYLQMNSLRAEDTAVYYCARQAWGYYALDIWGQGTLVTVSS VL: DIQLTQSPSSLSASVGDRVTITCSASISVSYLYWYQQKPGKAPKLLIYDDSSLASGVPSRFSGSGSGTDFTLTISSLQPEDFATYYCQQWSGYPYTFGQGTKVEIK | 0.109 nM | 0.000406 s⁻¹ | 3.72e+06 M⁻¹ s⁻¹ | 0.0834 nM | 0.00486 s⁻¹ | 5.82e+07 M⁻¹ s⁻¹ |
